Test results from the supplement of paper PMC5998384.

Columns and labels:
HeLa Kyoto [1] = assay: solubility in G1/S (NP-40 vs SDS abundance) (log2 ratio); higher = more soluble; settings: cell cycle stage: G1/S
HeLa Kyoto [2] = assay: melting temperature (median over replicates), in situ; higher = more thermally stable
HeLa Kyoto [3] = assay: thermal stability score vs G1/S (z-score of summed log2 fold changes over temperatures); higher = more thermally stable than in G1/S
HeLa Kyoto [4] = assay: solubility change mitosis vs G1/S (difference of NP-40 vs SDS log2 ratios) (log2 ratio difference); higher = more soluble in mitosis
[5] = cell cycle stage: early G1 (4.5 h after nocodazole release)
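Throughout, for melting temperature (median over replicates), in situ: HeLa Kyoto cells synchronized by double thymidine or nocodazole block, proteins quantified by TMT10plex mass spectrometry, three independent biological replicates.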
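Throughout, for solubility change mitosis vs G1/S (difference of NP-40 vs SDS log2 ratios): synchronized HeLa Kyoto cells (double thymidine block for G1/S, nocodazole release for mitosis), protein amounts in NP-40 versus SDS lysates quantified by mass spectrometry, three biological replicates.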
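Throughout, for solubility in G1/S (NP-40 vs SDS abundance): HeLa Kyoto cells arrested at G1/S by double thymidine block, proteins quantified by TMT10plex mass spectrometry in mild NP-40 versus SDS extracts, three biological replicates.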
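Throughout, for thermal stability score vs G1/S (z-score of summed log2 fold changes over temperatures): synchronized HeLa Kyoto cells, proteins quantified by TMT10plex mass spectrometry, three biological replicates, mitosis taken 0.5 h after nocodazole release, G1/S directly after double thymidine block.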

“MASTDYSTYSQAAAQQGYSAYTAQPTQGYAQTTQAYGQQSYGTYGQPTDVSYTQAQTTATYGQTAYATSYGQPPTGYTTPTAPQAYSQPVQGYGTGAYDTTTATVTTTQASYAAQSAYGTQPAYPAYGQQPAATAPTRPQDGNKPTETSQPQSSTGGYNQPSLGYGQSNYSYPQVPGSYPMQPVTAPPSYPPTSYSSTQPTSYDQSSYSQQNTYGQPSSYGQQSSYGQQSSYGQQPPTSYPPQTGSYSQAPSQYSQQSSSYGQQSSFRQDHPSSMGVYGQESGGFSGPGENRSMSGPDNRGRGRGGFDRGGMSRGGRGGGRGGMGSAGERGGFNKPGGPMDEGPDLDLGPPVDPDEDSDNSAIYVQGLNDSVTLDDLADFFKQCGVVKMNKRTGQPMIHIYLDKETGKPKGDATVSYEDPPTAKAAVEWFDGKDFQGSKLKVSLARKKPPMNSMRGGLPPREGRGMPPPLRGGPGGPGGPGGPMGRMGGRGGDRGGFPPRGPRGSRGNPSGGGNVQHRAGDWQCPNPGCGNQNFAWRTECNQCKAPKPEGFLPPPFPPPGGDRGRGGPGGMRGGRGGLMDRGGPGGMFRGGRGGDRGGFRGGRGMDRGGFGGGRRGGPGGPPGPLMEQMGGRRGGRGGPGKMDKGEHRQERRDRPY [EWSR1]” was tested, and the “solubility in G1/S (log2)” value (HeLa Kyoto [1]) was 0.0308, the melting temperature (HeLa Kyoto [2]; cell cycle stage: G1/S) was 55.6 °C and the melting temperature (HeLa Kyoto [2]; cell cycle stage: mitosis) was 55.8 °C. For the same sequence, the thermal stability score (HeLa Kyoto [3]; [5]) was 0.0358, the thermal stability score (HeLa Kyoto [3]; cell cycle stage: mitosis) was 0.453 and the “solubility change mitosis (log2)” value (HeLa Kyoto [4]) was 0.157.

With “MATAVSRPCAGRSRDILWRVLGWRIVASIVWSVLFLPICTTVFIIFSRIDLFHPIQWLSDSFSDLYSSYVIFYFLLLSVVIIIISIFNVEFYAVVPSIPCSRLALIGKIIHPQQLMHSFIHAAMGMVMAWCAAVITQGQYSFLVVPCTGTNSFGSPAAQTCLNEYHLFFLLTGAFMGYSYSLLYFVNNMNYLPFPIIQQYKFLRFRRSLLLLVKHSCVESLFLVRNFCILYYFLGYIPKAWISTAMNLHIDEQVHRPLDTVSGLLNLSLLYHVWLCGVFLLTTWYVSWILFKIYATEAHVFPVQPPFAEGSDECLPKVLNSNPPPIIKYLALQDLMLLSQYSPSRRQEVFSLSQPGGHPHNWTAISRECLNLLNGMTQKLILYQEAAATNGRVSSSYPVEPKKLNSPEETAFQTPKSSQMPRPSVPPLVKTSLFSSKLSTPDVVSPFGTPFGSSVMNRMAGIFDVNTCYGSPQSPQLIRRGPRLWTSASDQQMTEFSNPSPSTSISAEGKTMRQPSVIYSWIQNKREQIKNFLSKRVLIMYFFSKHPEASIQAVFSDAQMHIWALEGLSHLVAASFTEDRFGVVQTTLPAILNTLLTLQEAVDKYFKLPHASSKPPRISGSLVDTSYKTLRFAFRASLKTAIYRITTTFGEHLNAVQASAEHQKRLQQFLEFKE [NDC1]” the “solubility in G1/S (log2)” value (HeLa Kyoto [1]) was -0.187, the melting temperature (HeLa Kyoto [2]; cell cycle stage: G1/S) was 52.7 °C and the melting temperature (HeLa Kyoto [2]; cell cycle stage: mitosis) was 51.3 °C. The thermal stability score (HeLa Kyoto [3]; [5]) was -4.66, the thermal stability score (HeLa Kyoto [3]; cell cycle stage: mitosis) was -7.41 and the “solubility change mitosis (log2)” value (HeLa Kyoto [4]) was 0.182.

For “MATCAEILRSEFPEIDGQVFDYVTGVLHSGSADFESVDDLVEAVGELLQEVSGDSKDDAGIRAVCQRMYNTLRLAEPQSQGNSQVLLDAPIQLSKITENYDCGTKLPGLLKREQSSTVNAKKLEKAEARLKAKQEKRSEKDTLKTSNPLVLEEASASQAGSRKESRLESSGKNKSYDVRIENFDVSFGDRVLLAGADVNLAWGRRYGLVGRNGLGKTTLLKMLATRSLRVPAHISLLHVEQEVAGDDTPALQSVLESDSVREDLLRRERELTAQIAAGRAEGSEAAELAEIYAKLEEIEADKAPARASVILAGLGFTPKMQQQPTREFSGGWRMRLALARALFARPDLLLLDEPTNMLDVRAILWLENYLQTWPSTILVVSHDRNFLNAIATDIIHLHSQRLDGYRGDFETFIKSKQERLLNQQREYEAQQQYRQHIQVFIDRFRYNANRASQVQSKLKMLEKLPELKPVDKESEVVMKFPDGFEKFSPPILQLDEVDFYYDPKHVIFSRLSVSADLESRICVVGENGAGKSTMLKLLLGDLAPVRGIRHAHRNLKIGYFSQHHVEQLDLNVSAVELLARKFPGRPEEEYRHQLGRYGISGELAMRPLASLSGGQKSRVAFAQMTMPCPNFYILDEPTNHLDMETIEALGRALNNFRGGVILVSHDERFIRLVCRELWVCEGGGVTRVEGGFDQYRALLQEQFRREGFL [ABCF3]”, the “solubility in G1/S (log2)” value (HeLa Kyoto [1]) was 0.0738, the melting temperature (HeLa Kyoto [2]; cell cycle stage: G1/S) was 47.9 °C and the melting temperature (HeLa Kyoto [2]; cell cycle stage: mitosis) was 47.9 °C. For the same sequence, the thermal stability score (HeLa Kyoto [3]; [5]) was 1.82, the thermal stability score (HeLa Kyoto [3]; cell cycle stage: mitosis) was 3.62 and the “solubility change mitosis (log2)” value (HeLa Kyoto [4]) was -0.0928.

For “MATEGDVELELETETSGPERPPEKPRKHDSGAADLERVTDYAEEKEIQSSNLETAMSVIGDRRSREQKAKQEREKELAKVTIKKEDLELIMTEMEISRAAAERSLREHMGNVVEALIALTN [HYPK]”, the “solubility in G1/S (log2)” value (HeLa Kyoto [1]) was 0.395, the melting temperature (HeLa Kyoto [2]; cell cycle stage: G1/S) was 54.4 °C and the melting temperature (HeLa Kyoto [2]; cell cycle stage: mitosis) was 54 °C. The thermal stability score (HeLa Kyoto [3]; [5]) was -6.39, the thermal stability score (HeLa Kyoto [3]; cell cycle stage: mitosis) was -8.21 and the “solubility change mitosis (log2)” value (HeLa Kyoto [4]) was 0.208.

With “MATEGMILTNHDHQIRVGVLTVSDSCFRNLAEDRSGINLKDLVQDPSLLGGTISAYKIVPDEIEEIKETLIDWCDEKELNLILTTGGTGFAPRDVTPEATKEVIEREAPGMALAMLMGSLNVTPLGMLSRPVCGIRGKTLIINLPGSKKGSQECFQFILPALPHAIDLLRDAIVKVKEVHDELEDLPSPPPPLSPPPTTSPHKQTEDKGVQCEEEEEEKKDSGVASTEDSSSSHITAAAIAAKIPDSIISRGVQVLPRDTASLSTTPSESPRAQATSRLSTASCPTPKVQSRCSSKENILRASHSAVDITKVARRHRMSPFPLTSMDKAFITVLEMTPVLGTEIINYRDGMGRVLAQDVYAKDNLPPFPASVKDGYAVRAADGPGDRFIIGESQAGEQPTQTVMPGQVMRVTTGAPIPCGADAVVQVEDTELIRESDDGTEELEVRILVQARPGQDIRPIGHDIKRGECVLAKGTHMGPSEIGLLATVGVTEVEVNKFPVVAVMSTGNELLNPEDDLLPGKIRDSNRSTLLATIQEHGYPTINLGIVGDNPDDLLNALNEGISRADVIITSGGVSMGEKDYLKQVLDIDLHAQIHFGRVFMKPGLPTTFATLDIDGVRKIIFALPGNPVSAVVTCNLFVVPALRKMQGILDPRPTIIKARLSCDVKLDPRPEYHRCILTWHHQEPLPWAQSTGNQMSSRLMSMRSANGLLMLPPKTEQYVELHKGEVVDVMVIGRL [GPHN]” the “solubility in G1/S (log2)” value (HeLa Kyoto [1]) was 0.226, the melting temperature (HeLa Kyoto [2]; cell cycle stage: G1/S) was 55.6 °C and the melting temperature (HeLa Kyoto [2]; cell cycle stage: mitosis) was 54.6 °C. The thermal stability score (HeLa Kyoto [3]; [5]) was -0.16, the thermal stability score (HeLa Kyoto [3]; cell cycle stage: mitosis) was -1.19 and the “solubility change mitosis (log2)” value (HeLa Kyoto [4]) was -0.057.

“MATESPATRRVQVAEHPRLLKLKEMFNSKFGSIPKFYVRAPGRVNIIGEHIDYCGYSVLPMAVEQDVLIAVEPVKTYALQLANTNPLYPDFSTSANNIQIDKTKPLWHNYFLCGLKGIQEHFGLSNLTGMNCLVDGNIPPSSGLSSSSALVCCAGLVTLTVLGRNLSKVELAEICAKSERYIGTEGGGMDQSISFLAEEGTAKLIEFSPLRATDVKLPSGAVFVIANSCVEMNKAATSHFNIRVMECRLAAKLLAKYKSLQWDKVLRLEEVQAKLGISLEEMLLVTEDALHPEPYNPEEICRCLGISLEELRTQILSPNTQDVLIFKLYQRAKHVYSEAARVLQFKKICEEAPENMVQLLGELMNQSHMSCRDMYECSCPELDQLVDICRKFGAQGSRLTGAGWGGCTVSMVPADKLPSFLANVHKAYYQRSDGSLAPEKQSLFATKPGGGALVLLEA [GALK2]” was tested, and the “solubility in G1/S (log2)” value (HeLa Kyoto [1]) was 0.145, the melting temperature (HeLa Kyoto [2]; cell cycle stage: G1/S) was 54.5 °C and the melting temperature (HeLa Kyoto [2]; cell cycle stage: mitosis) was 54.2 °C. For the same sequence, the thermal stability score (HeLa Kyoto [3]; [5]) was 0.289, the thermal stability score (HeLa Kyoto [3]; cell cycle stage: mitosis) was 0.99 and the “solubility change mitosis (log2)” value (HeLa Kyoto [4]) was -0.141.

For “MATGANATPLDFPSKKRKRSRWNQDTMEQKTVIPGMPTVIPPGLTREQERAYIVQLQIEDLTRKLRTGDLGIPPNPEDRSPSPEPIYNSEGKRLNTREFRTRKKLEEERHNLITEMVALNPDFKPPADYKPPATRVSDKVMIPQDEYPEINFVGLLIGPRGNTLKNIEKECNAKIMIRGKGSVKEGKVGRKDGQMLPGEDEPLHALVTANTMENVKKAVEQIRNILKQGIETPEDQNDLRKMQLRELARLNGTLREDDNRILRPWQSSETRSITNTTVCTKCGGAGHIASDCKFQRPGDPQSAQDKARMDKEYLSLMAELGEAPVPASVGSTSGPATTPLASAPRPAAPANNPPPPSLMSTTQSRPPWMNSGPSESRPYHGMHGGGPGGPGGGPHSFPHPLPSLTGGHGGHPMQHNPNGPPPPWMQPPPPPMNQGPHPPGHHGPPPMDQYLGSTPVGSGVYRLHQGKGMMPPPPMGMMPPPPPPPSGQPPPPPSGPLPPWQQQQQQPPPPPPPSSSMASSTPLPWQQNTTTTTTSAGTGSIPPWQQQQAAAAASPGAPQMQGNPTMVPLPPGVQPPLPPGAPPPPPPPPPGSAGMMYAPPPPPPPPMDPSNFVTMMGMGVAGMPPFGMPPAPPPPPPQN [SF1]”, the “solubility in G1/S (log2)” value (HeLa Kyoto [1]) was 0.255, the melting temperature (HeLa Kyoto [2]; cell cycle stage: G1/S) was 53.4 °C and the thermal stability score (HeLa Kyoto [3]; [5]) was -4.58. The thermal stability score (HeLa Kyoto [3]; cell cycle stage: mitosis) was -1.85 and the “solubility change mitosis (log2)” value (HeLa Kyoto [4]) was 0.135.
